According to patent US20230285585A1, “TREATMENT OF PULMONARY HYPERTENSION” (PHILOGEN S.P.A., priority 2020, published 2023):

B1: mIL9-F8(db): murine IL9 conjugated to the N-terminus of the F8 diabody; SEQ ID NO: 21 (protein)
chain: QRCSTTWGIRDTNYLIENLKDDPPSKCSCSGNVTSCLCLSVPTDDCTTPCYREGLLQLTNATQKSRLLPVFHRVKRIVEVLKNITCPSFSCEKPCNQTMAGNTLSFLKSLLGTFQKTEMQRQKSRPGGGGSGGGGSGGGGSEVQLLESGGGLVQPGGSLRLSCAASGFTFSLFTMSWVRQAPGKGLEWVSAISGSGGSTYYADSVKGRFTISRDNSKNTLYLQMNSLRAEDTAVYYCAKSTHLYLFDYWGQGTLVTVSSGGSGGEIVLTQSPGTLSLSPGERATLSCRASQSVSMPFLAWYQQKPGQAPRLLIYGASSRATGIPDRFSGSGSGTDFTLTISRLEPEDFAVYYCQQMRGRPPTFGQGTKVEIK
modifications: murine IL9 conjugated to the N-terminus of the F8 diabody (mIL9-F8(Db))
B2: F8(db)-mIL9: murine IL9 conjugated to the C-terminus of the F8 diabody; SEQ ID NO: 20 (protein)
chain: EVQLLESGGGLVQPGGSLRLSCAASGFTFSLFTMSWVRQAPGKGLEWVSAISGSGGSTYYADSVKGRFTISRDNSKNTLYLQMNSLRAEDTAVYYCAKSTHLYLFDYWGQGTLVTVSSGGSGGEIVLTQSPGTLSLSPGERATLSCRASQSVSMPFLAWYQQKPGQAPRLLIYGASSRATGIPDRFSGSGSGTDFTLTISRLEPEDFAVYYCQQMRGRPPTFGQGTKVEIKGGGGSGGGGSGGGGSQRCSTTWGIRDTNYLIENLKDDPPSKCSCSGNVTSCLCLSVPTDDCTTPCYREGLLQLTNATQKSRLLPVFHRVKRIVEVLKNITCPSFSCEKPCNQTMAGNTLSFLKSLLGTFQKTEMQRQKSRP
modifications: of murine IL9 conjugated to the C-terminus of the F8 diabody (F8(Db)-mIL9)

Key:
[1] = test system: Monocrotaline (MCT) induced pulmonary hypertension (PH) in C57BL/6 mice; experiment: Right heart catheterization in MCT induced PH mouse model (Example 4); format: in vivo; conditions: for pressure values in the right ventricle, RVPsys (result in words): in contrast to KSF containing control immunocytokines
Excerpt: To induce Pulmonary Hypertension (PH), C57BL/6 mice (bodyweight: 25-30 g) were used. The animals were obtained from ZET facility (Zentrale Experimentelle Tierhaltung) of the University Hospital Jena (UKJ, Jena, Germany). Prior to PH induction, mice were allowed to acclimatize for at least 7 days with ad libitum access to food and water as well as controlled light/dark cycles. In this set of experiments, 50 animals were investigated divided into the following 7 experimental groups: • sham induced controls (n=10) • MCT induced PH (n=8) • MCT induced PH+MACI (n=8) • MCT induced PH+F8mIL9F8 in CrAb format (n=6) • MCT induced PH+KSFmIL9KSF in CrAb format (n=6) • MCT induced PH+F8_(IgG-HC4)-mIL9 (n=6) • MCT induced PH+KSF_(IgG-HC4)-mIL9 (n=6)
For PH induction, the Monocrotaline (MCT, Carl Roth, Germany) method was used.
The sham induced controls were injected with 30 μl NaCl not containing MCT at day 1 (single dose; intraperitoneally, i.p.). […] The other 6 experimental groups were injected with MCT (single dose; intraperitoneally, i.p.; 60 mg/kg body weight; volume 30 μl). Animals in the MCT induced PH+MACI group received the drug (Macitentan, Actelion Pharmaceuticals Ltd.) from day 14 to day 28 (once daily; per os; 15 mg/kg body weight).
Animals in the MCT induced PH+F8mIL9F8 in CrAb format group received F8mIL9F8 3 times on days 14, 16 and 18 (intravenously, i.v.; 200 μg/injection; volume 154 μl). Animals in the MCT induced PH+KSFmIL9KSF in CrAb format group received KSFmIL9KSF 3 times on days 14, 16 and 18 (intravenously, i.v.; 198 μg/injection; volume 182 μl).
Animals in the MCT induced PH+F8_(IgG-HC4)-mIL9 group received F8_(IgG-HC4)-mIL9 3 times on days 14, 16 and 18 (intravenously, i.v.; 261 μg/injection; volume 137 μl). Animals in the MCT induced PH+KSF_(IgG-HC4)-mIL9 group received KSF_IgG-HC4mIL9 3 times on days 14, 16 and 18 (intravenously, i.v.; 258 μg/injection; volume 161 μl).
On day 28 after MCT injection, mice of all experimental groups were deeply anesthetized with a single dose of 100 mg/kg body weight ketamine and 10 mg/kg body weight Xylazin in approximately 60 μl each administered i.p.
Right heart catheterization using a 1.4 F micro conductance pressure-volume catheter (Model SPR-839; Millar Instruments Inc; PowerLab system, ADInstruments Ltd., Oxford, UK) was performed via the right vena jugularis interna to measure the systolic right ventricular pressure and thereby verify the success of the experimental setting. Mice were then sacrificed in deep anesthesia and analgesia to carry out cardiac blood collection after thoracotomy and to harvest the organs.
(§1) Statistical analyses were performed using IBM SPSS statistical software, version 25.0 (IBM SPSS Statistics for Windows. Armonk, N.Y., USA). Data are expressed as mean±standard deviation. […]

[2] = test system: Monocrotaline (MCT) induced pulmonary hypertension (PH) in C57BL/6 mice; experiment: Echocardiographic assessment in MCT induced PH mouse model (Example 4); format: in vivo; conditions: in contrast to KSF containing control immunocytokines
Method: To induce Pulmonary Hypertension (PH), C57BL/6 mice (bodyweight: 25-30 g) were used. The animals were obtained from ZET facility (Zentrale Experimentelle Tierhaltung) of the University Hospital Jena (UKJ, Jena, Germany). Prior to PH induction, mice were allowed to acclimatize for at least 7 days with ad libitum access to food and water as well as controlled light/dark cycles. […]
Echocardiographic assessment was performed on day 28 using the Vevo 770 Rodent-Ultrasound-System, Visual Sonic, Canada, 17 MHz probe RMV176. […] Body temperature and respiratory rate were continuously monitored. All surrogate parameters of right ventricular (RV) morphology and function were assessed, among others, RV basal and medial diameters (in mm), RV length (in mm), tricuspid annular plane systolic excursion (TAPSE, in mm), right atrial area (RA area, in mm^2) or main pulmonary artery diameter (MPA, in mm).
as §1

[3] = target: T1, recombinant fibronectin 11A12 domain (EDA) (Homo sapiens, UniProt P02751); experiment: Biacore surface plasmon resonance binding analysis; conditions: SPR, BIAcore X100, CM5 chip coated with recombinant fibronectin 11A12 domain
T1 construct: recombinant fibronectin 11A12 domain
T1 sequence (P02751 1629-1905 limits assumed): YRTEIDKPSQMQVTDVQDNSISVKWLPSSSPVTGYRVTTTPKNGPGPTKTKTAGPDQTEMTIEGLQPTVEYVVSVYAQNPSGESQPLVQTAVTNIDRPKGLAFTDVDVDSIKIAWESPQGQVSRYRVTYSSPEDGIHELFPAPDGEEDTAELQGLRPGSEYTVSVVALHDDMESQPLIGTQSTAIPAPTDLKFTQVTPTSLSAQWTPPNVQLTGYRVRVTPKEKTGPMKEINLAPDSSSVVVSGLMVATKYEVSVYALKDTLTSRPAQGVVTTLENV
Method: Binding affinity was determined by surface plasmon resonance using a BIAcore X100 instrument using a CM5 chip coated with recombinant fibronectin 11A12 domain. Samples were injected as serial-dilution, using a concentration range from […] to 125 nM.

Molecule	apparent KD [3]	other results
F8(IgG4-HC)-mIL9: two murine IL9 moieties fused to C-termini of heavy chains of F8 IgG4; SEQ ID NOs: 61 and 62	–	treatment effects relative to MACI (result in words) [1]: improved compared with the effects achieved by MACI; pressure values in the right ventricle, RVPsys (result in words) ([1]; listed as F8_(IgG-HC4)-mIL9): significantly reduced; pressure values in the right ventricle, RVPsys (result in words) ([1]; listed as IgG-HC4mIL9): significantly reduce; echocardiographic signs of right ventricular load and dysfunction (result in words) [2]: significantly improved a variety
F8(db)-hIL9: human IL9 conjugated to the C-terminus of the F8 diabody; SEQ ID NO: 22	in the nM range	–
F8(scFv)-hIL9-F8(scFv): human IL9 conjugated at N- and C-terminus to an F8 scFv, CrAb format; SEQ ID NO: 18	in the nM range	–
hIL9-F8(db): human IL9 conjugated to the N-terminus of the F8 diabody; SEQ ID NO: 23	in the nM range	–
B1	in the nM range	–
B2	in the nM range	–
